Assay results: paper PMC13480463 (Science translational medicine, 2021)

Molecular target: T1, Fzd3 (receptor of the AP binding assays) (UniProt Q61086 23-666)
T1 sequence (looked up): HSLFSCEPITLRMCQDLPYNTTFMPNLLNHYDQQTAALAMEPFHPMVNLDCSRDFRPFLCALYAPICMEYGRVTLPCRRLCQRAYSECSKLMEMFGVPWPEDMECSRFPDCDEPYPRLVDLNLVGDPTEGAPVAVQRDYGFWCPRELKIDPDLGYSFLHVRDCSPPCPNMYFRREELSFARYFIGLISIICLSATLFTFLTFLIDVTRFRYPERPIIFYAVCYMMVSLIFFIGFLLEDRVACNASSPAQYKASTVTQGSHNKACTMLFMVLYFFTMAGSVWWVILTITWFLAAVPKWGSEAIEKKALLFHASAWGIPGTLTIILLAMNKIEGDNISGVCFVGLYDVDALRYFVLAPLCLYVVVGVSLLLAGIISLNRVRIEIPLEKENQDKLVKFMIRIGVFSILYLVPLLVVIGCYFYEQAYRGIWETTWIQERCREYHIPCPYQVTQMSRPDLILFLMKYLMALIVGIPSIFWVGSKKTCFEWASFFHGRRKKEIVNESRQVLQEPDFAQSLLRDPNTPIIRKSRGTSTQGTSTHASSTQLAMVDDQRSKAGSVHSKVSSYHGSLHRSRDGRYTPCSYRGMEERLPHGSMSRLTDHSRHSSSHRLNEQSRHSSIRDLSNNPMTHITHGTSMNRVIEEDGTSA
Experiment: alkaline phosphatase

B1: AP-tagged TSK protein (TSK-AP) (ligand, mouse, UniProt Q8CBR6 18-354, looked up)
chain: TRPCFPGCQCEEETFGLFDSFSLIRVDCSSLGPHIVPVPIPLDTAHLDLSSNRLETVNESVLAGPGYTTLAGLDLSYNLLTSIMPSAFSRLRYLESLDLSHNGLAALPAEIFTSSPLSDINLSHNRLREVSISAFTTHSQGRALHVDLSHNLIHRLLPHPARASLPAPTIQSLNLSWNRFRAVPDLRDLPLRYLSLDGNPLATINPDAFMGLAGLTHLSLASLQGILHLPPHGFRELPGLQVLDLSGNPKLKWAGAEVFSGLGLLQELDLSGSSLVPLPEMLLHHLPALQSVSVGQDVQCRRLVREGAYHRQPGSSPKVVLHCGDTQESAARGPDIL
Kd: 0.27 nM
